{
  "source": "patent CN112961250A",
  "about": "(CHANGCHUN GENESCIENCE PHARMACEUTICALS CO LTD, dated 2021)",
  "target": "T1, 人VEGFC-His(金赛自构) (human)",
  "T1 construct": "also called hVEGFC-His; hVEGFC",
  "T1 chain": "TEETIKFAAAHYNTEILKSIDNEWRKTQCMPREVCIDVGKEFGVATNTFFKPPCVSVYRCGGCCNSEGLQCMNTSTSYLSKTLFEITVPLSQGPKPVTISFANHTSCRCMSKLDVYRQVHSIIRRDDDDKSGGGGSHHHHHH",
  "assay": "ELISA, human VEGFC-His coated at 1 μg/ml",
  "data": [
    {"binder": "抗人VEGFC单克隆抗体P01-H1L4 (antibody, V domains shown, also called 阳性对照抗体P01-H1L4; 对照抗体P01-H1L4) VH: EVRLLESGGGLVQPGGSLRLSCAASGFTFRRSTMAWVRQAPGKGLEWVSSISAQGANTYYADNVKGRFTISRDNSKNTLYLQMNSLRAEDTAVYYCARDLPAGGFGPWGRGTMVTVSS VL: SYELTQPPSSSGTPGQRVTISCRGSSSNIGRYSVSWYQQVPGTAPKLLIYTDNQRPSGVPDRFSASKSGTSASLTITGLQSEDEADYYCAAWDDSQYGPWVFGGGTKLTVL", "values": [
      {"measurement": "binding result", "value": "binds"}
    ]}
  ]
}
